Molecular target: T1, ACE2 (angiotensin-converting enzyme 2), labeled (human, UniProt Q9BYF1 18-740)
T1 construct: also called labeled ACE2
Test: labeled ACE2 on immobilized Mixed Panel, ECL

T1 sequence (Q9BYF1 18-740 limits assumed): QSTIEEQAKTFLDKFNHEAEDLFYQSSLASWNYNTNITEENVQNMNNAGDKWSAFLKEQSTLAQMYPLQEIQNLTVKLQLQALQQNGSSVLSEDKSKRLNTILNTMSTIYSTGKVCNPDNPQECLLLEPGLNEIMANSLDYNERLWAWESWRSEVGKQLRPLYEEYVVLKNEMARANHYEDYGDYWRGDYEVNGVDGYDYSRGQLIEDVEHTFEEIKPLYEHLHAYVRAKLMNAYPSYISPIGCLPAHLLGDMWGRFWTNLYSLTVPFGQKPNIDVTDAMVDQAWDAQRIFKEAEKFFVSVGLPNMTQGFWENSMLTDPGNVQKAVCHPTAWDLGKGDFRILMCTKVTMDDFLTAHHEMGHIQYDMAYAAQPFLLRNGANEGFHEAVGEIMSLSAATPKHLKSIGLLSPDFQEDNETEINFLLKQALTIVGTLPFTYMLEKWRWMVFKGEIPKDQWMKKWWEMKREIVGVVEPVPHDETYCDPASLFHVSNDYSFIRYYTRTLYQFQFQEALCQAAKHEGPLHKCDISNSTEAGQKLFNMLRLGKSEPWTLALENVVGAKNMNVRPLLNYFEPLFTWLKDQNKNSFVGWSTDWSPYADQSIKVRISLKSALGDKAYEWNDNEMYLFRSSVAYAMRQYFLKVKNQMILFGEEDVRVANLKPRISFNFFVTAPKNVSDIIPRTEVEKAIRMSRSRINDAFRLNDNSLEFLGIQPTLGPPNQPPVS

B1: HCoV-OC43 S protein (other)
chain: AVIGDLKCTSDNINDKDTGPPPISTDTVDVTNGLGTYYVLDRVYLNTTLFLNGYYPTSGSTYRNMALKGSVLLSRLWFKPPFLSDFINGIFAKVKNTKVIKDRVMYSEFPAITIGSTFVNTSYSVVVQPRTINSTQDGDNKLQGLLEVSVCQYNMCEYPQTICHPNLGNHRKELWHLDTGVVSCLYKRNFTYDVNADYLYFHFYQEGGTFYAYFTDTGVVTKFLFNVYLGMALSHYYVMPLTCNSKLTLEYWVTPLTSRQYLLAFNQDGIIFNAEDCMSDFMSEIKCKTQSIAPPTGVYELNGYTVQPIADVYRRKPNLPNCNIEAWLNDKSVPSPLNWERKTFSNCNFNMSSLMSFIQADSFTCNNIDAAKIYGMCFSSITIDKFAIPNGRKVDLQLGNLGYLQSFNYRIDTTATSCQLYYNLPAANVSVSRFNPSTWNKRFGFIEDSVFKPRPAGVLTNHDVVYAQHCFKAPKNFCPCKLNGSCVGSGPGKNNGIGTCPAGTNYLTCDNLCTPDPITFTGTYKCPQTKSLVGIGEHCSGLAVKSDYCGGNSCTCRPQAFLGWSADSCLQGDKCNIFANFILHDVNSGLTCSTDLQKANTDIILGVCVNYDLYGILGQGIFVEVNATYYNSWQNLLYDSNGNLYGFRDYIINRTFMIRSCYSGRVSAAFHANSSEPALLFRNIKCNYVFNNSLTRQLQPINYFDSYLGCVVNAYNSTAISVQTCDLTVGSGYCVDYSKNRRSRGAITTGYRFTNFEPFTVNSVNDSLEPVGGLYEIQIPSEFTIGNMVEFIQTSSPKVTIDCAAFVCGDYAACKSQLVEYGSFCDNINAILTEVNELLDTTQLQVANSLMNGVTLSTKLKDGVNFNVDDINFSPVLGCLGSECSKASSRSAIEDLLFDKVKLSDVGFVEAYNNCTGGAEIRDLICVQSYKGIKVLPPLLSENQISGYTLAATSASLFPPWTAAAGVPFYLNVQYRINGLGVTMDVLSQNQKLIANAFNNALYAIQEGFDATNSALVKIQAVVNANAEALNNLLQQLSNRFGAISASLQEILSRLDALEAEAQIDRLINGRLTALNAYVSQQLSDSTLVKFSAAQAMEKVNECVKSQSSRINFCGNGNHIISLVQNAPYGLYFIHFSYVPTKYVTARVSPGLCIAGDRGIAPKSGYFVNVNNTWMYTGSGYYYPEPITENNVVVMSTCAVNYTKAPYVMLNTSIPNLPDFKEELDQWFKNQTSVAPDLSLDYINVTFLDLQVEMNRLQEAIKVLNQSYINLKDIGTYEY
notes: also called S protein from HCoV-OC43
Question: Does B1 bind?
Answer: no binding

B2: MERS-CoV S protein (other)
chain: YVDVGPDSVKSACIEVDIQQTFFDKTWPRPIDVSKADGIIYPQGRTYSNITITYQGLFPYQGDHGDMYVYSAGHATGTTPQKLFVANYSQDVKQFANGFVVRIGAAANSTGTVIISPSTSATIRKIYPAFMLGSSVGNFSDGKMGRFFNHTLVLLPDGCGTLLRAFYCILEPRSGNHCPAGNSYTSFATYHTPATDCSDGNYNRNASLNSFKEYFNLRNCTFMYTYNITEDEILEWFGITQTAQGVHLFSSRYVDLYGGNMFQFATLPVYDTIKYYSIIPHSIRSIQSDRKAWAAFYVYKLQPLTFLLDFSVDGYIRRAIDCGFNDLSQLHCSYESFDVESGVYSVSSFEAKPSGSVVEQAEGVECDFSPLLSGTPPQVYNFKRLVFTNCNYNLTKLLSLFSVNDFTCSQISPAAIASNCYSSLILDYFSYPLSMKSDLSVSSAGPISQFNYKQSFSNPTCLILATVPHNLTTITKPLKYSYINKCSRFLSDDRTEVPQLVNANQYSPCVSIVPSTVWEDGDYYRKQLSPLEGGGWLVASGSTVAMTEQLQMGFGITVQYGTDTNSVCPKLEFANDTKIASQLGNCVEYSLYGVSGRGVFQNCTAVGVRQQRFVYDAYQNLVGYYSDDGNYYCLRACVSVPVSVIYDKETKTHATLFGSVACEHISSTMSQYSRSTRSMLKRRDSTYGPLQTPVGCVLGLVNSSLFVEDCKLPLGQSLCALPDTPSTLTPRSVRSVPGEMRLASIAFNHPIQVDQLNSSYFKLSIPTNFSFGVTQEYIQTTIQKVTVDCKQYVCNGFQKCEQLLREYGQFCSKINQALHGANLRQDDSVRNLFASVKSSQSSPIIPGFGGDFNLTLLEPVSISTGSRSARSAIEDLLFDKVTIADPGYMQGYDDCMQQGPASARDLICAQYVAGYKVLPPLMDVNMEAAYTSSLLGSIAGVGWTAGLSSFAAIPFAQSIFYRLNGVGITQQVLSENQKLIANKFNQALGAMQTGFTTTNEAFHKVQDAVNNNAQALSKLASELSNTFGAISASIGDIIQRLDVLEQDAQIDRLINGRLTTLNAFVAQQLVRSESAALSAQLAKDKVNECVKAQSKRSGFCGQGTHIVSFVVNAPNGLYFMHVGYYPSNHIEVVSAYGLCDAANPTNCIAPVNGYFIKTNNTRIVDEWSYTGSSFYAPEPITSLNTKYVAPQVTYQNISTNLPPPLLGNSTGIDFQDELDEFFKNVSTSIPNFGSLTQINTTLLDLTYEMLSLQQVVKALNESYIDLKELGNYTY
notes: also called S protein from MERS-CoV
Question: Does B2 bind?
Answer: no binding

B3: HCoV-HKU1 S protein (other)
chain: AVIGDFNCTNFAINDLNTTVPRISEYVVDVSYGLGTYYILDRVYLNTTILFTGYFPKSGANFRDLSLKGTTYLSTLWYQKPFLSDFNNGIFSRVKNTKLYVNKTLYSEFSTIVIGSVFINNSYTIVVQPHNGVLEITACQYTMCEYPHTICKSKGSSRNESWHFDKSEPLCLFKKNFTYNVSTDWLYFHFYQERGTFYAYYADSGMPTTFLFSLYLGTLLSHYYVLPLTCNAISSNTDNETLQYWVTPLSKRQYLLKFDNRGVITNAVDCSSSFFSEIQCKTKSLLPNTGVYDLSGFTVKPVATVHRRIPDLPDCDIDKWLNNFNVPSPLNWERKIFSNCNFNLSTLLRLVHTDSFSCNNFDESKIYGSCFKSIVLDKFAIPNSRRSDLQLGSSGFLQSSNYKIDTTSSSCQLYYSLPAINVTINNYNPSSWNRRYGFNNFNLSSHSVVYSRYCFSVNNTFCPCAKPSFASSCKSHKPPSASCPIGTNYRSCESTTVLDHTDWCRCSCLPDPITAYDPRSCSQKKSLVGVGEHCAGFGVDEEKCGVLDGSYNVSCLCSTDAFLGWSYDTCVSNNRCNIFSNFILNGINSGTTCSNDLLQPNTEVFTDVCVDYDLYGITGQGIFKEVSAVYYNSWQNLLYDSNGNIIGFKDFVTNKTYNIFPCYAGRVSAAFHQNASSLALLYRNLKCSYVLNNISLTTQPYFDSYLGCVFNADNLTDYSVSSCALRMGSGFCVDYNSPSSSSSRRKRRSISASYRFVTFEPFNVSFVNDSIESVGGLYEIKIPTNFTIVGQEEFIQTNSPKVTIDCSLFVCSNYAACHDLLSEYGTFCDNINSILDEVNGLLDTTQLHVADTLMQGVTLSSNLNTNLHFDVDNINFKSLVGCLGPHCGSSSRSFFEDLLFDKVKLSDVGFVEAYNNCTGGSEIRDLLCVQSFNGIKVLPPILSESQISGYTTAATVAAMFPPWSAAAGIPFSLNVQYRINGLGVTMDVLNKNQKLIATAFNNALLSIQNGFSATNSALAKIQSVVNSNAQALNSLLQQLFNKFGAISSSLQEILSRLDALEAQVQIDRLINGRLTALNAYVSQQLSDISLVKFGAALAMEKVNECVKSQSPRINFCGNGNHILSLVQNAPYGLLFMHFSYKPISFKTVLVSPGLCISGDVGIAPKQGYFIKHNDHWMFTGSSYYYPEPISDKNVVFMNTCSVNFTKAPLVYLNHSVPKLSDFESELSHWFKNQTSIAPNLTLNLHTINATFLDLYYEMNLIQESIKSLN
notes: also called S protein from HCoV-HKU1
Question: Does B3 bind?
Answer: no binding
